Measured values taken from doi:10.1101/2020.04.29.068361.

Target: Meiothermus taiwanensis LonA (Lon AAA+ protease), wild type, full length (Meiothermus taiwanensis)
Assay: cryo-EM structure

stoichiometry N: 6
Substance: Meiothermus taiwanensis LonA (Lon AAA+ protease), wild type, full length (enzyme)
